The results in this text go back to patent publication US20170137511A1 (CALYPSO BIOTECH, published 2017).

Sequences and labels used below:
B1: huB-E29-5 (antibody, human IgG1, kappa, V domains shown)
VH: EVRLMASGGGLVQPGGSLRLSCAASEFTFSNYAMSWVRQAPGKGLEWVATISRGGDYTYYPDSVKGRFTISRDNSKNTLYLQMNSLRAEDTAVYYCARRVSMITGGWAMDYWGQGTLVTVSS
VL: DVVMTQSPLSLPVTLGQPASISCRSSQSIVDITGNTYLEWYQQRPGQSPRRLIYKVFNRFSGVPDRFSGSGSGTDFTLKISRVEAEDVGVYYCFQDSFVPYTFGQGTKLEIKR
notes: Humanized B-E29 variant; human IgG1 (G1m3) / kappa (Km3), produced in CHO cells; also called huVH1/huVL3
B2: huB-E29-14 (antibody, human IgG1, kappa, V domains shown)
VH: EVRLMASGGGLVQPGGSLRLSCAASEFTFSNYAMSWVRQAPGKGLEWVATISRGGDYTYYPDSVKGRFTISRDNSKNTLYLQMNSLRAEDTAVYYCARRVSMITGGWAFDYWGQGTLVTVSS
VL: DVVMTQSPLSLPVTLGQPASISCRSSQSIVDITGNTYLEWYQQRPGQSPRLLIYKVFNRFSGVPDRFSGSGSGTDFTLKISRVEAEDVGVYYCFQDSFVPYTFGQGTKLEIKR
notes: Humanized B-E29 variant; human IgG1 (G1m3) / kappa (Km3), produced in CHO cells; also called huVH12/huVL1
B3: huB-E29-7 (antibody, human IgG1, kappa, V domains shown)
VH: EVRLMASGGGLVQPGGSLRLSCAASEFTFSNYAMSWVRQAPGKGLEWVATISRGGDYTYYPESVKGRFTISRDNSKNTLYLQMNSLRAEDTAVYYCARRVSFITGGWAMDYWGQGTLVTVSS
VL: DVVMTQSPLSLPVTLGQPASISCRSSQSIVDITGNTYLEWYQQRPGQSPRLLIYKVFNRFSGVPDRFSGSGSGTDFTLKISRVEAEDVGVYYCFQDSFVPYTFGQGTKLEIKR
notes: Humanized B-E29 variant; human IgG1 (G1m3) / kappa (Km3), produced in CHO cells; also called huVH5/huVL1
B4: huB-E29-3 (antibody, human IgG1, kappa, V domains shown)
VH: EVRLMASGGGLVQPGGSLRLSCAASEFTFSNYAMSWVRQAPGKGLEWVSTISRGGDYTYYPDSVKGRFTISRDNSKNTLYLQMNSLRAEDTAVYYCARRVSMITGGWAMDYWGQGTLVTVSS
VL: DVVMTQSPLSLPVTLGQPASISCRSSQSIVDITGNTYLEWYQQRPGQSPRLLIYKVFNRFSGVPDRFSGSGSGTDFTLKISRVEAEDVGVYYCFQDSFVPYTFGQGTKLEIKR
notes: Humanized B-E29 variant; human IgG1 (G1m3) / kappa (Km3), produced in CHO cells; also called huVH3/huVL1
B5: huB-E29-30 (antibody, human IgG1, kappa, V domains shown)
VH: EVRLMASGGGLVQPGGSLRLSCAASEFTFSNYAMSWVRQAPGKGLEWVATISRGGDYTYYPDSVKGRFTISRDNSKNTLYLQMNSLRAEDTAVYYCARRVSFITGGYAMDYWGQGTLVTVSS
VL: DVVMTQSPLSLPVTLGQPASISCRSSQSIVDITGNTYLEWYQQRPGQSPRLLIYKVFNRFSGVPDRFSGSGSGTDFTLKISRVEAEDVGVYYCFQDSFVPYTFGQGTKLEIKR
notes: Humanized B-E29 variant; human IgG1 (G1m3) / kappa (Km3), produced in CHO cells; also called huVH20/huVL1
B6: huB-E29-6 (antibody, human IgG1, kappa, V domains shown)
VH: EVRLMASGGGLVQPGGSLRLSCAASEFTFSNYAMSWVRQAPGKGLEWVATISRGGDYTYYPDSVKGRFTISRDNSKNTLYLQMNSLRAEDTAVYYCARRVSLITGGWAMDYWGQGTLVTVSS
VL: DVVMTQSPLSLPVTLGQPASISCRSSQSIVDITGNTYLEWYQQRPGQSPRLLIYKVFNRFSGVPDRFSGSGSGTDFTLKISRVEAEDVGVYYCFQDSFVPYTFGQGTKLEIKR
notes: Humanized B-E29 variant; human IgG1 (G1m3) / kappa (Km3), produced in CHO cells; also called huVH4/huVL1
B7: huB-E29-17 (antibody, human IgG1, kappa, V domains shown)
VH: EVRLMASGGGLVQPGGSLRLSCAASEFTFSNYAMSWVRQAPGKGLEWVATISRGGDYTYYPDTVKGRFTISRDNSKNTLYLQMNSLRAEDTAVYYCARRVSMITGGWAMDYWGQGTLVTVSS
VL: DVVMTQSPLSLPVTLGQPASISCRSSQSIVDITGNTYLEWYQQRPGQSPRLLIYKVFNRFSGVPDRFSGSGSGTDFTLKISRVEAEDVGVYYCFQDSFVPYTFGQGTKLEIKR
notes: Humanized B-E29 variant; human IgG1 (G1m3) / kappa (Km3), produced in CHO cells; also called huVH15/huVL1
B8: huB-E29-13 (antibody, human IgG1, kappa, V domains shown)
VH: EVRLMASGGGLVQPGGSLRLSCAASEFTFSNYAMSWVRQAPGKGLEWVATISRGGDYTYYPDSVKGRFTISRDNSKNTLYLQMNSLRAEDTAVYYCARRVSMITGGWALDYWGQGTLVTVSS
VL: DVVMTQSPLSLPVTLGQPASISCRSSQSIVDITGNTYLEWYQQRPGQSPRLLIYKVFNRFSGVPDRFSGSGSGTDFTLKISRVEAEDVGVYYCFQDSFVPYTFGQGTKLEIKR
notes: Humanized B-E29 variant; human IgG1 (G1m3) / kappa (Km3), produced in CHO cells; also called huVH11/huVL1
B9: huB-E29-16 (antibody, human IgG1, kappa, V domains shown)
VH: EVRLMASGGGLVQPGGSLRLSCAASEFTFSNYAMSWVRQAPGKGLEWVATISRGGDYTYYPESVKGRFTISRDNSKNTLYLQMNSLRAEDTAVYYCARRVSMITGGWAMDYWGQGTLVTVSS
VL: DVVMTQSPLSLPVTLGQPASISCRSSQSIVDITGNTYLEWYQQRPGQSPRLLIYKVFNRFSGVPDRFSGSGSGTDFTLKISRVEAEDVGVYYCFQDSFVPYTFGQGTKLEIKR
notes: Humanized B-E29 variant; human IgG1 (G1m3) / kappa (Km3), produced in CHO cells; also called huVH14/huVL1

T1 sequence (P40221 49-162): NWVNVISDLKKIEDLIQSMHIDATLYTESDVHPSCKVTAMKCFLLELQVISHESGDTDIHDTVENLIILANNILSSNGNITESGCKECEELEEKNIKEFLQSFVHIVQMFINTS
Sequence of recombinant human IL-15 (Prospec cat no. CYT230) (P40933 other isoform, or with tags, fused parts or gaps): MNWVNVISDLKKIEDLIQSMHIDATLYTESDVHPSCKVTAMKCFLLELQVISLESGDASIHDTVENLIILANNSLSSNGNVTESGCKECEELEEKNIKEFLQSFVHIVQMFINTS

One assay has as its target T1, recombinant Macaque Monkey IL-15 (MyBiosource cat. no. MBS948894) (Rhesus macaque / Cynomolgus monkey, UniProt P40221 49-162 (Chlorocebus aethiops entry)).
T1 construct: Produced in yeast; also called Rhesus macaque IL-15; recombinant monkey IL-15; not shown: additional N-terminal His tag
The assay is described as follows: ELISA, plate-bound Macaque Monkey IL-15; printed as BC50 (half-maximal binding concentration). The protocol:
(§1) Maxisorp plates were coated with recombinant human IL-15 (Prospec cat no. CYT230) or Rhesus macaque IL-15 (MyBiosource cat. no. MBS948894) at 100 ng/well in carbonate coating buffer for 2 hours at 37° C. Since published sequences of Rhesus macaque and Cynomolgus monkey IL-15 are identical, such recombinant IL-15 protein was referred to as Macaque Monkey IL-15. Tested human IL-15 recombinant protein has a sequence identical to that provided in SEQ ID NO: 1 but with an additional methionine at the N-terminal position as usually done for expressing recombinant proteins in E. Coli. Tested recombinant Macaque Monkey IL-15 was produced in yeast and has a sequence identical to that provided in SEQ ID NO: 4 but with an additional N-terminal His tag.
(§2) The plate was then blocked with 2% normal goat serum for 30 min at 37° C. and washed 6 times with PBS-Tween (0.05% Tween-20 in PBS, v/v). Test antibodies were added to the plate in triplicate at various dilutions in PBS-Tween and the plate was incubated with gentle rocking at room temperature for 2 hours. The plate was then washed 6 times with PBS-Tween and an appropriate dilution of goat anti-human IgG antibody (Millipore cat. no. AP309P) conjugated to horseradish peroxidase (HRP) was added to the plate and left rocking at room temperature for 1 hour. The plate was then washed 6 times with PBS-Tween and incubated with TMB substrate. The reaction was stopped by the addition of 1M H₂SO₄ and read at 450 nm. Dose response curves of absorbance versus concentration were plotted and analyzed to determine half-maximal binding concentrations (BC₅₀) using the Graphpad Prism software. BC₅₀ values expressed as molarity were extrapolated from concentration in ng/ml using a 150 kDa molecular weight value for all antibodies.
(In an ELISA, binding on a coated surface is turned into a signal by an enzyme label.)
For orientation: EC50 means the concentration needed to bring the measured effect to its halfway point. Regarding B1, the EC50 is 0.453 nM.

As for B2, the concentration giving a half-maximal response (EC50) came to 0.347 nM.

With B3, the 50% effective concentration (EC50) stood at 0.433 nM.

The next assay concerns the target recombinant human IL-15 (Prospec cat no. CYT230) (human, UniProt P40933 49-162). Description: ELISA, plate-bound human IL-15; printed as BC50 (half-maximal binding concentration). How it is done: as §1, §2
Take B4: the EC50 was 2.62 nM. As to B5, the EC50 came out at 5.87 nM. In the case of B6, the concentration giving a half-maximal response (EC50) came to 1.84 nM. For the molecule B7, the EC50 is 2.61 nM.

For the molecule B8, the EC50 was determined as 3.17 nM. Take B9: the EC50 is 2.01 nM.

In the case of B1, the EC50 was found to be 1.47 nM.

As for B2, the EC50 is 0.813 nM. With B3, the EC50 is 0.84 nM.
